Measured values taken from paper PMC3322874 (The Journal of Biological Chemistry, 2012).
Positions count from the first letter of the chain named. Names and notes keep the numbering of the source.

B1: R182K-AfUGM (enzyme, Aspergillus fumigatus)
chain: THPDISVDVLVIGAGPTGLGAAKRLNQIDGPSWMIVDSNETPGGLASTDVTPEGFLYDVGGHVIFSHYKYFDDCLDEALPKEDDWYTHQRISYVRCQGQWVPYPFQNNISMLPKEEQVKCIDGMIDAALEARVANTKPKTFDEWIVRMMGTGIADLFMRPYNFKVWAVPTTKMQCAWLGEKVAAPNLKAVTTNVILGKTAGNWGPNATFRFPARGGTGGIWIAVANTLPKEKTRFGEKGKVTKVNANNKTVTLQDGTTIGYKKLVSTMAVDFLAEAMNDQELVGLTKQLFYSSTHVIGVGVRGSRPERIGDKCWLYFPEDNCPFYRATIFSNYSPYNQPEASKKLPTMQLADGSRPQSTEAKEGPYWSIMLEVSESSMKPVNQETILADCIQGLVNTEMLKPTDEIVSTYHRRFDHGYPTPTLEREGALTQILPKLQDKDIWSRGRFGSWRYEVGNQDHSFMLGVEAVDNIVNGAVELTLNYPDFVNGRQNTERRLVDGAQVFAKSKAQ
B2: R327K-AfUGM (enzyme, Aspergillus fumigatus)
chain: B1 chain with K181R, R326K

Molecular target: the molecule itself
Experiment: crystal structure

Protein	stoichiometry N
B1	4
B2	4
